In the RNAGym collection of RNA variant scans (doi:10.1073/pnas.2313332121):
Variants at the floor of the assay were thinned out.

B1: TPR 5TU (parent)
chain: GGAUCUUCUCGAUCUAACAAAAAAGACAAAUCUGCCACAAAGCUUGAGAGCAUCUUCGGAUGCAGAGGCGGCAGCCUUCGGUGGCGCGAUAGCGCCAACGUUCUCAACUAUGACACGCAAAACGCGUGCUCCGUUGAAUGGAGUUUAUCAUG

Variants of: B1
Assay: polymerase ribozyme fitness, log enrichment relative to wild type (log ratio); higher = more active; in vitro selection for triplet polymerase activity
Procedure, shortened: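 For each subunit of a heterodimeric triplet polymerase ribozyme, a mutant library was built by PCR and transcribed, then taken through a single in vitro selection round in triplicate. Selection involved annealing to a biotinylated primer, the partner subunit and triplets, incubation frozen at −7 °C, gel excision of extended constructs, capture on streptavidin beads and RT-PCR. Genotypes were retained after Illumina sequencing of inputs and outputs only with ≥10 input reads and ≥1 read in each output. Fitness is defined as the logarithm of a genotype's enrichment relative to wild-type enrichment, using inverse-variance-weighted averages across replicates, with the logarithm taken to base 2.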

First: U56A C96A A138G
Second: C57G C93G
The “polymerase ribozyme fitness (log ratio)” value of the first is lower: no more than -4.2 for the first, -4.06 for the second.

Going from C57G C93A to U55G U90A, the “polymerase ribozyme fitness (log ratio)” value falls from -2.2 to no more than -4.2.

First: U56G U148G
Second: C57G U101A
The “polymerase ribozyme fitness (log ratio)” value of the first is lower: -3.89 for the first, 0.403 for the second.

Compared with C57A G65A, C57A U78C C95G C99G is lower in “polymerase ribozyme fitness (log ratio)” value: -0.56 for the first, -3.07 for the second.

First: U55G G62A
Second: G58C C72U A98G
The “polymerase ribozyme fitness (log ratio)” value of the first is lower: -2.48 for the first, 0.461 for the second.

U56A G70A G81C and G58U A60C C105G U148G cannot be ordered by “polymerase ribozyme fitness (log ratio)” value: no more than -4.2 for the first, no more than -4.2 for the second.

C57A A107C C125A G133A G136A U151A and C57A G74U G88U A115G A119U U145G C149G cannot be ordered by “polymerase ribozyme fitness (log ratio)” value: no more than -4.2 for the first, no more than -4.2 for the second.

First: U56A C96G
Second: U56A U101G
The “polymerase ribozyme fitness (log ratio)” value of the first is lower: -0.228 for the first, 0.0793 for the second.

Compared with U56A U90G, C57U G83U is higher in “polymerase ribozyme fitness (log ratio)” value: no more than -4.2 for the first, -1.72 for the second.

First: C57G A73U G83C G133U G143C U145C
Second: G58A U104A
The “polymerase ribozyme fitness (log ratio)” value of the first is lower: no more than -4.2 for the first, 0.105 for the second.

First: C57A C69A U127A
Second: C57G C93A A113G A120C
The “polymerase ribozyme fitness (log ratio)” value of the first is lower: no more than -4.2 for the first, -4.13 for the second.

First: G58C U82A G143C
Second: U55G C108G
The “polymerase ribozyme fitness (log ratio)” value of the first is higher: -1.86 for the first, no more than -4.2 for the second.

Compared with U56A G141U, U56A U61G G65A C85A G86A A121U U127A is lower in “polymerase ribozyme fitness (log ratio)” value: 0.137 for the first, no more than -4.2 for the second.

Compared with U56G G92U, C57U C95A G136A is higher in “polymerase ribozyme fitness (log ratio)” value: -2.1 for the first, -0.1 for the second.

Going from U56G G136A to U56A U78A A121C, the “polymerase ribozyme fitness (log ratio)” value falls from 0.0437 to no more than -4.2.

Going from G58C A89U C95A G126U to C57U C79A A110C, the “polymerase ribozyme fitness (log ratio)” value falls from -0.892 to no more than -4.2.

Going from U56A A89G to C57A U61A C95U A97U A115U U144C, the “polymerase ribozyme fitness (log ratio)” value falls from -2.69 to no more than -4.2.

First: G58A C95U
Second: C57G C69G U101G C118U
The “polymerase ribozyme fitness (log ratio)” value of the first is higher: -0.535 for the first, -2.81 for the second.

Going from C57A G141A G152U to U55G G67C U78G G83U C93A U102A A121C, the “polymerase ribozyme fitness (log ratio)” value falls from -3.49 to no more than -4.2.

First: U56G C69U A73U U134C G141U U146A
Second: C57G U82A G83U G141U
The “polymerase ribozyme fitness (log ratio)” value of the first is lower: -2.72 for the first, -1.49 for the second.

Compared with U56A A73U C87A A142C, G58A G86A is higher in “polymerase ribozyme fitness (log ratio)” value: no more than -4.2 for the first, -1.63 for the second.

First: C57U C79A
Second: C57A C79U C93U A98U A147U
The “polymerase ribozyme fitness (log ratio)” value of the first is lower: -4.19 for the first, -3.03 for the second.

First: U56A C75A G141A
Second: U56A A113U
The “polymerase ribozyme fitness (log ratio)” value of the first is lower: no more than -4.2 for the first, -1.87 for the second.

First: C57G A115U U145A
Second: U56C C93U C114G A119G
The “polymerase ribozyme fitness (log ratio)” value of the first is higher: -1.54 for the first, -3.79 for the second.

Going from C57U C96G to C57U C96U, the “polymerase ribozyme fitness (log ratio)” value rises from -0.76 to -0.201.

Compared with U55G U61G C76U C87A U101G U134G G136U, U56G G84C C116U is higher in “polymerase ribozyme fitness (log ratio)” value: no more than -4.2 for the first, -4.17 for the second.

First: C57G C76U G88A G92U
Second: C57U C76G A115C A150G
The “polymerase ribozyme fitness (log ratio)” value of the first is higher: -3.96 for the first, no more than -4.2 for the second.

Going from U56A G58C U61A G86U C87A G100U to U56A G81U U101G, the “polymerase ribozyme fitness (log ratio)” value rises from no more than -4.2 to -0.889.

Compared with U56G A97C, C57G C85G is lower in “polymerase ribozyme fitness (log ratio)” value: -1.65 for the first, -1.95 for the second.

Compared with C57A G59A G84U A97U C118G, G58C G83A C93U is higher in “polymerase ribozyme fitness (log ratio)” value: -3.12 for the first, -2.03 for the second.

First: C57U C131U
Second: U56A G58A C103A C125A
The “polymerase ribozyme fitness (log ratio)” value of the first is higher: 1.26 for the first, -0.231 for the second.

Compared with C57U C69A G84U A121C, G58C G59A C85U G133C is higher in “polymerase ribozyme fitness (log ratio)” value: -2.25 for the first, -1.29 for the second.

Compared with U56A U130A, G58C A60G G67A C69A G92U G112A G143C is lower in “polymerase ribozyme fitness (log ratio)” value: -2.03 for the first, no more than -4.2 for the second.

First: G58A C76U U101G
Second: G58A C85G
The “polymerase ribozyme fitness (log ratio)” value of the first is higher: 0.481 for the first, -2.86 for the second.

Going from C57U G86A C99G to U56G G81A U104C U145C, the “polymerase ribozyme fitness (log ratio)” value rises from -3.33 to -1.47.

Compared with U56C C93U, G58A C95U C96G is higher in “polymerase ribozyme fitness (log ratio)” value: -1.53 for the first, -1.01 for the second.

Going from U56A C95A to G58C A73G U101C C125G, the “polymerase ribozyme fitness (log ratio)” value falls from -0.487 to -0.932.

First: G58C C76A G83U
Second: G58C A97U
The “polymerase ribozyme fitness (log ratio)” value of the first is lower: -2.66 for the first, -0.712 for the second.

First: C57A A122C
Second: U56G G59U C87A
The “polymerase ribozyme fitness (log ratio)” value of the first is higher: -0.0129 for the first, no more than -4.2 for the second.

C57A C95A C96U G141A and U56A C132G A137U are within 0.2 log units of each other in “polymerase ribozyme fitness (log ratio)” value: -4.07 for the first, -4.03 for the second.

C57A A64C C129G and C57A G83C C87U U134G U139A U144G cannot be ordered by “polymerase ribozyme fitness (log ratio)” value: no more than -4.2 for the first, no more than -4.2 for the second.

In the case of C57G G86U, the “polymerase ribozyme fitness (log ratio)” value is reported as -1.26.
